Source: the Immune Epitope Database (IEDB)
One block for each sequence: values may come before it.

How the values were obtained:
HLA-A*24:02 = assay: IEDB peptide-MHC binding, purified MHC/competitive/fluorescence; ≥ and ≤ were set here for values at or beyond the usual limits of such assays
HLA-A*02:01 [1] = assay: as above
HLA-B*35:01 = assay: IEDB peptide-MHC binding, purified MHC/competitive/radioactivity; filed as Kd, often an IC50 or EC50 that approximates it; ≥ and ≤ were set here for values at or beyond the usual limits of such assays
HLA-B*53:01 = assay: as above
HLA-B*51:01 = assay: as above
HLA-B*07:02 = assay: as above
HLA-B*54:01 = assay: as above
HLA-A*30:01 = assay: as above
HLA-A*03:01 = assay: as above
HLA-A*68:01 = assay: as above; details: source organism: Vaccinia virus WR
HLA-A*33:01 = assay: as above; details: source organism: Vaccinia virus WR
HLA-A*31:01 = assay: as above; details: source organism: Vaccinia virus WR
HLA-A*11:01 = assay: as above; details: source organism: Vaccinia virus WR
HLA-A*02:01 [2] = assay: IEDB peptide-MHC binding, purified MHC/competitive/fluorescence; filed as Kd, often an IC50 or EC50 that approximates it; ≥ and ≤ were set here for values at or beyond the usual limits of such assays
[3] = source organism: Zaire ebolavirus
[4] = source organism: Triticum aestivum
[5] = source organism: Vaccinia virus WR
[6] = source organism: Dengue virus 1 Brazil/97-11/1997
[7] = source organism: SARS coronavirus Tor2
[8] = source organism: Sudan ebolavirus
[9] = source organism: Vaccinia virus Copenhagen
[10] = source organism: Mammarenavirus guanaritoense
[11] = source organism: Lassa virus Josiah

Sequence: QGLIQYPTA
IC50 (HLA-A*24:02; [3]): 12600 nM
IC50 (HLA-A*02:01 [1]; [3]): 46100 nM

Kd (HLA-B*35:01; [4]): 66.8 nM
Kd (HLA-B*53:01; [4]): 7550 nM
Kd (HLA-B*51:01; [4]): ≥ 43500 nM
Kd (HLA-B*07:02; [4]): ≥ 77500 nM
Kd (HLA-B*54:01; [4]): ≥ 78100 nM
Sequence: QPFPSQQPY

Kd (HLA-B*35:01; [4]): ≥ 23700 nM
Kd (HLA-B*53:01; [4]): ≥ 36600 nM
Kd (HLA-B*51:01; [4]): 4830 nM
Kd (HLA-B*07:02; [4]): ≥ 77500 nM
Kd (HLA-B*54:01; [4]): 12100 nM
Sequence: QPQEQVPLV

Kd (HLA-B*35:01; [4]): ≥ 63700 nM
Kd (HLA-B*53:01; [4]): ≥ 63700 nM
Kd (HLA-B*51:01; [4]): 14100 nM
Kd (HLA-B*07:02; [4]): ≥ 64000 nM
Kd (HLA-B*54:01; [4]): ≥ 63700 nM
Sequence: QPQQLPQFEEI

Sequence: QVHAEQGLI
IC50 (HLA-A*24:02; [3]): 47000 nM

Sequence: RAKSPTRQS
Kd (HLA-A*30:01; [5]): 260 nM

Sequence: RCLKPVILK
Kd (HLA-A*03:01; [6]): 156 nM
Kd (HLA-A*30:01; [6]): 220 nM

Sequence: RDGVKRLEE
IC50 (HLA-A*24:02; [3]): ≥ 89800 nM

Sequence: RPNHTIKGSF
Kd (HLA-B*35:01; [7]): ≥ 69900 nM
Kd (HLA-B*53:01; [7]): ≥ 69900 nM
Kd (HLA-B*51:01; [7]): ≥ 69600 nM
Kd (HLA-B*07:02; [7]): 57.7 nM
Kd (HLA-B*54:01; [7]): ≥ 69900 nM

Sequence: RPSIGNVFKA
Kd (HLA-B*35:01; [5]): ≥ 69900 nM
Kd (HLA-B*53:01; [5]): ≥ 36400 nM
Kd (HLA-B*51:01; [5]): ≥ 69600 nM
Kd (HLA-B*07:02; [5]): 3830 nM
Kd (HLA-B*54:01; [5]): 644 nM

Sequence: RVRNRVSTG
Kd (HLA-A*30:01; source organism: Dengue virus 3 Martinique/1243/1999): 115 nM

Sequence: RWGFRSGVP
IC50 (HLA-A*24:02; [8]): 16700 nM
IC50 (HLA-A*02:01 [1]; [8]): 16400 nM

Sequence: SFFVWVIIL
IC50 (HLA-A*24:02; [8]): ≥ 72500 nM

Sequence: SINVEYRFL
IC50 (HLA-A*24:02; [5]): 27700 nM
IC50 (HLA-A*02:01 [1]; [5]): 27200 nM

Sequence: SPMLYQLLEA
Kd (HLA-B*35:01; [5]): 143 nM
Kd (HLA-B*53:01; [5]): 228 nM
Kd (HLA-B*51:01; [5]): ≥ 69600 nM
Kd (HLA-B*07:02; [5]): 94 nM
Kd (HLA-B*54:01; [5]): 8.77 nM

Sequence: SPMVIATTDM
Kd (HLA-B*35:01; [5]): 66.6 nM
Kd (HLA-B*53:01; [5]): 747 nM
Kd (HLA-B*51:01; [5]): ≥ 52700 nM
Kd (HLA-B*07:02; [5]): 21.6 nM
Kd (HLA-B*54:01; [5]): 1040 nM

Sequence: SPSGVYQCAM
Kd (HLA-B*35:01; [7]): 26.3 nM
Kd (HLA-B*53:01; [7]): 748 nM
Kd (HLA-B*51:01; [7]): 1070 nM
Kd (HLA-B*07:02; [7]): 6.09 nM
Kd (HLA-B*54:01; [7]): 2810 nM

Sequence: SPYNSQNAVA
Kd (HLA-B*35:01; [7]): 8240 nM
Kd (HLA-B*53:01; [7]): 15900 nM
Kd (HLA-B*51:01; [7]): 3470 nM
Kd (HLA-B*07:02; [7]): 59.4 nM
Kd (HLA-B*54:01; [7]): 1.4 nM

Sequence: STSSSYLYA
Kd (HLA-A*30:01; [9]): 13.3 nM

Sequence: TFRERYSYK
Kd (HLA-A*03:01; [5]): 73.6 nM
Kd (HLA-A*68:01): 127 nM
Kd (HLA-A*33:01): 28.8 nM
Kd (HLA-A*30:01; [5]): 0.885 nM
Kd (HLA-A*31:01): 14.6 nM
Kd (HLA-A*11:01): 43.7 nM

Sequence: TPNNFSSIV
Kd (HLA-B*35:01; [10]): 1810 nM
Kd (HLA-B*53:01; [10]): 7580 nM
Kd (HLA-B*51:01; [10]): 1250 nM
Kd (HLA-B*07:02; [10]): 1370 nM
Kd (HLA-B*54:01; [10]): 408 nM

Sequence: TPNYMKLLV
Kd (HLA-B*35:01; [5]): 8.41 nM
Kd (HLA-B*51:01; [5]): ≥ 77500 nM
Kd (HLA-B*07:02; [5]): 51.3 nM
Kd (HLA-B*54:01; [5]): 30.7 nM

Sequence: VPDADPPIPY
Kd (HLA-B*35:01; [5]): 142 nM
Kd (HLA-B*53:01; [5]): 1650 nM
Kd (HLA-B*51:01; [5]): ≥ 69600 nM
Kd (HLA-B*07:02; [5]): 2020 nM
Kd (HLA-B*54:01; [5]): 19300 nM

Kd (HLA-B*35:01; [4]): 16100 nM
Kd (HLA-B*53:01; [4]): 4820 nM
Kd (HLA-B*51:01; [4]): 5910 nM
Kd (HLA-B*07:02; [4]): 8750 nM
Kd (HLA-B*54:01; [4]): ≥ 69900 nM
Sequence: VPLVQQQQFL

Sequence: VPVLEKKVCA
Kd (HLA-B*35:01; [5]): 7680 nM
Kd (HLA-B*53:01; [5]): ≥ 26400 nM
Kd (HLA-B*51:01; [5]): ≥ 29100 nM
Kd (HLA-B*07:02; [5]): 3000 nM
Kd (HLA-B*54:01; [5]): 256 nM

Sequence: WPYIASRTSI
Kd (HLA-B*35:01; [11]): ≥ 72000 nM
Kd (HLA-B*53:01; [11]): ≥ 23200 nM
Kd (HLA-B*51:01; [11]): 45.8 nM
Kd (HLA-B*07:02; [11]): 55.6 nM
Kd (HLA-B*54:01; [11]): 714 nM

Sequence: YHKILTAGL
IC50 (HLA-A*24:02; [3]): 7410 nM

Sequence: YLLEMLWRL
Kd (HLA-A*02:01 [2]; source organism: Human herpesvirus 4 strain B95-8): 4.5 nM

Sequence: YLSDSAINI
Kd (HLA-A*02:01 [2]; [9]): 1.3 nM
